Reference: US20230280343A1

Legend:
p300 [1] = molecular target: p300 (UniProt Q09472); assay: ELISA, total binding fit, average of three independent trials (FIG. 21)
p300 [2] = molecular target: p300 (UniProt Q09472); assay: ELISA; ratio of Kd against native HIF1α

Sequence of p300 (Q09472 323-423 limits assumed): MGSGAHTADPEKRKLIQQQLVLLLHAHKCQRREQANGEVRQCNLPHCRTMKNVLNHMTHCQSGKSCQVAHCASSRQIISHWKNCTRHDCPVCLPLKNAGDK

B1: HIF1α-MAP-2 (H-MAP-2) (designed binder)
chain: MRGSPKKKRKVGGGGSHHHHHHHHGSACELAATATATATATATAACGDLAPQMLRELQETNAALQDVRELLRQQVKEITFLKNTLLEIWKAAKEAAKEAAAKIEEQAKTFLDKFNGEELLRALDQVN
Kd (p300 [1]): 0.0382 nM

B2: HIF1α-MAP-1 (H-MAP-1) (designed binder)
chain: MRGSHHHHHHGSACELAATATATATATATAACGDLAPQMLRELQETNAALQDVRELLRQQVKEITFLKNTLLEIWKAAKEAAKEAAAKIEEQAKTFLDKFNGEELLRALDQVN
Kd (p300 [1]): 0.00808 nM
fold improvement over native HIF1α (p300 [2]): 47 fold
